Measurements published in patent US20250115669A1, “FGFR1/KLB Targeting Agonistic Antigen-Binding Proteins and Conjugates Thereof with GLP-1R Agonistic Peptides” (SANOFI, priority 2020, published 2025).
Where a chain is given by its changes, count along the chain named. Numbers in names are those of the source. One block for each molecule: values may come before it.

Tests used:
[1] = biological target: T1, FGFR1c and co-receptor beta-Klotho (KLB) (Homo sapiens, UniProt P11362+Q86Z14); assay: Luciferase reporter gene assay (iLite FGF21 Assay Ready Cells), FGF21-like signaling; assay type: cell-based; conditions: Luciferase gene reporter assay, mean, n=3-7
T1 construct: host or cells: iLite FGF21 Assay Ready Cells (HEK293)
T1 sequence (P11362 22-820 isoform P11362-2 limits assumed, one chain of several): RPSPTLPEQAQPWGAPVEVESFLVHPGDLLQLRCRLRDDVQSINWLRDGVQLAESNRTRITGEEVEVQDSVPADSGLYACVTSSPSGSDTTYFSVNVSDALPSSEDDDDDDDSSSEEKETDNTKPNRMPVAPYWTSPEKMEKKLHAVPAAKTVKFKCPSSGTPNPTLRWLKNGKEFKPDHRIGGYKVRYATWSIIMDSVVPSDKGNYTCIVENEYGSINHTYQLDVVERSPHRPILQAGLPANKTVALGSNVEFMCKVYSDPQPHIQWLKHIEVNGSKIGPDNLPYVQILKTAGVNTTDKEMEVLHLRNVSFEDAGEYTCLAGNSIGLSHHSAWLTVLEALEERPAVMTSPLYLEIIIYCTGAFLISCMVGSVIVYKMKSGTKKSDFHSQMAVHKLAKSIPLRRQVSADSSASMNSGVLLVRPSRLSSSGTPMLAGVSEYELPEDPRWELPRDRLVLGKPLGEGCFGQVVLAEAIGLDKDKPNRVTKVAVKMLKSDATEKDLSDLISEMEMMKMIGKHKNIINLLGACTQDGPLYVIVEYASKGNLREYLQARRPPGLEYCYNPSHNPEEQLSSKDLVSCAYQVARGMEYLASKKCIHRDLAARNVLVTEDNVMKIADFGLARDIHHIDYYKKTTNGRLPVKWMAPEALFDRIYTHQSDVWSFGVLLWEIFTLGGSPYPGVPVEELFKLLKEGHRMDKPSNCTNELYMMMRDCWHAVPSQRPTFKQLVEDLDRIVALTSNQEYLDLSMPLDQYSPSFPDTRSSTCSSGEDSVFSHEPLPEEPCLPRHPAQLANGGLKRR

human beta-Klotho = biological target: T2, human beta-Klotho (Homo sapiens, UniProt Q86Z14); assay: SPR off-rate screening of antibody mutants (human beta-Klotho captured by anti-His antibody); assay type: binding; conditions: mean, n=3
T2 sequence (Q86Z14 1-1044): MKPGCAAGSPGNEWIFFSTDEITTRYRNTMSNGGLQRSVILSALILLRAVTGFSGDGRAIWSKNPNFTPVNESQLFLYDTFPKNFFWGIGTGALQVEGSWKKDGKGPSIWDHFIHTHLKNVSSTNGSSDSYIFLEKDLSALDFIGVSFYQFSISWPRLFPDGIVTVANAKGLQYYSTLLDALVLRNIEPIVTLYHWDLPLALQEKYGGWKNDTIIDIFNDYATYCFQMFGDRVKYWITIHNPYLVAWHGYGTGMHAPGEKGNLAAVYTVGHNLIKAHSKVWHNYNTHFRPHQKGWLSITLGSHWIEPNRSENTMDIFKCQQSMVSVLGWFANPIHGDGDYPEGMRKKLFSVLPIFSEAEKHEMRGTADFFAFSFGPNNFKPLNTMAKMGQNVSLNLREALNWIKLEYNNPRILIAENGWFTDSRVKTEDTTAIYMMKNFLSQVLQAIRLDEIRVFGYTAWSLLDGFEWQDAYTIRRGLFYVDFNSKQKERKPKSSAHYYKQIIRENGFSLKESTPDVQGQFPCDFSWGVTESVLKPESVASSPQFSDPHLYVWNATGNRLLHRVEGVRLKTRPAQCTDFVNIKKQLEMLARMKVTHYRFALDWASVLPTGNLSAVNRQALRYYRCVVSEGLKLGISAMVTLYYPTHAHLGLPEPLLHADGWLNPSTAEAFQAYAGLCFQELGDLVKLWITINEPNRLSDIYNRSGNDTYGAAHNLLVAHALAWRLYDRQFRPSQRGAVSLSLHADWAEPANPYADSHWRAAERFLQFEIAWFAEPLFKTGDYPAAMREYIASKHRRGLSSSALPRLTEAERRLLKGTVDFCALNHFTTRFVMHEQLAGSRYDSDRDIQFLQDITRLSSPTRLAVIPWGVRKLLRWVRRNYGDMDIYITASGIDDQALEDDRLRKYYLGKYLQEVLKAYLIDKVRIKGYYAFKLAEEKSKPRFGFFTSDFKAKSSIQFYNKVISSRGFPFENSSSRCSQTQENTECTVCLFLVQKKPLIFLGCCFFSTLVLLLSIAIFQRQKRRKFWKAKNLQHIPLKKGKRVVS
Procedure, shortened: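 Single-concentration SPR screen: mutant antibodies at 50 nmol/L were passed over captured beta-Klotho, and kd was derived from a single exponential fit.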

[2] = In vivo PK in transgenic humanized FcRn mice (Tg32); conditions: 0.3 mg/kg single IV, plasma, noncompartmental analysis
Method: In vivo PK studies were conducted in transgenic humanized FcRn mice (Tg32). For these studies, no GLP compliance was claimed.

HEK293 hFGFR1c + KLB (iLite) Emax [1]: 490.05%
B1: Ab0370: IgG4 PE; 16H7 VL (Y48del, W90H); 16H7 VH (M34V, H52W, I83T, D109E) (antibody)
VH: QVTLKESGPVLVKPTETLTLTCTVSGFSLNNARVGVSWIRQPPGKALEWLAWIFSNDEKSYSTSLKSRLTISKDTSKSQVVLTMTNMDPVDTATYYCARSVVTGGYYYEGMDVWGQGTTVTVSS
light: SYVLTQPPSVSVAPGQTARITCGGNNIGSESVHWYQQKPGQAPVLVVDDSDRPSGIPERFSGSNSGNTATLTISRVEAGDEADYYCQVHDGNSDHVVFGGGTKLTVLGQPKANPTVTLFPPSSEELQANKATLVCLISDFYPGAVTVAWKADGSPVKAGVETTKPSKQSNNKYAASSYLSLTPEQWKSHRSYSCQVTHEGSTVEKTVAPTECS

koff human KLB (human beta-Klotho): no binding
B4: Ab0375: IgG4 PE; 16H7 VL (Y48del, D95E, W90F, S1C, S94C); 16H7 VH (M34V, F54W, I83T, D109E) (antibody)
VH: B1 VH with W52H, F54W
light: B1 light with S1C, H89F, S93C, D94E

Further lines, the molecule ahead of its results:

B2: Ab0318: IgG4 PE; 16H7 VL (N25S, D50E, D91T, N93E); 16H7 VH (M34V, I83T, D109E) (antibody)
VH: B1 VH with W52H
light: SYVLTQPPSVSVAPGQTARITCGGSNIGSESVHWYQQKPGQAPVLVVYDESDRPSGIPERFSGSNSGNTATLTISRVEAGDEADYYCQVWTGESDHVVFGGGTKLTVLGQPKANPTVTLFPPSSEELQANKATLVCLISDFYPGAVTVAWKADGSPVKAGVETTKPSKQSNNKYAASSYLSLTPEQWKSHRSYSCQVTHEGSTVEKTVAPTECS
koff human KLB (human beta-Klotho): invalid fit

B3: Ab0314: IgG4 PE; 16H7 VL (N25S, D91T, N93E); 16H7 VH (M34V, I83T, D109E) (antibody)
VH: B1 VH with W52H
light: B2 light with E50D
koff human KLB (human beta-Klotho): 0.000402 s⁻¹ | t½ [2]: 18 days
